Reference: paper PMC9287376 (Nature Communications, 2022)
Changes are numbered by the printed parent chain.

T1: refolding Vibrio harveyi luciferase (urea-denatured and diluted into refolding buffer) (Vibrio harveyi, UniProt P07740 1-355; P07739 1-324)
T1 construct: alpha subunit of the heterodimeric flavin monooxygenase luciferase of Vibrio harveyi; beta subunit of the heterodimeric flavin monooxygenase luciferase of Vibrio harveyi; In the assays the heterodimer was urea-denatured; also called luciferase subunits; source: E. coli (pET21b), purified (Ni-His Trap, Superdex 75); denatured in 5 M urea and diluted into buffer A; not shown: His tag (on the …)
T1 sequence (looked up) 1: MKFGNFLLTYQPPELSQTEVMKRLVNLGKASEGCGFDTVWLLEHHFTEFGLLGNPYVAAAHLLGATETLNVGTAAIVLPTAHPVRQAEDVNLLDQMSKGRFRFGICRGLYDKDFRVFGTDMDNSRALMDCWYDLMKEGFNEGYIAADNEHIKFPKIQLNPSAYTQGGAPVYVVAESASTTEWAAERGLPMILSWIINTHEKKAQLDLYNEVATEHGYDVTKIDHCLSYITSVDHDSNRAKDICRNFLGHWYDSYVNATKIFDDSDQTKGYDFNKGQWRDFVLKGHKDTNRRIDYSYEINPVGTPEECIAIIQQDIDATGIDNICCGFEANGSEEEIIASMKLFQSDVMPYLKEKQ
T1 sequence (looked up) 2: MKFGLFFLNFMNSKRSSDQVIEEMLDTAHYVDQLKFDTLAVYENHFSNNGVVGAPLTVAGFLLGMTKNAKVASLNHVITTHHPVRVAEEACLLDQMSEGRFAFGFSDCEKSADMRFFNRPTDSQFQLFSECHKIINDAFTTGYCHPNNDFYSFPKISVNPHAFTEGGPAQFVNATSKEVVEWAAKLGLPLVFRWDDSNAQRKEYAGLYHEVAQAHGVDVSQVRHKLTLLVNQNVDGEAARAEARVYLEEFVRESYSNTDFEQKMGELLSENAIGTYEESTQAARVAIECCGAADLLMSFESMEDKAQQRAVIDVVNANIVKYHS

B1: wild-type trigger factor (natural protein)
chain: MQVSVETTQGLGRRVTITIAADSIETAVKSELVNVAKKVRIDGFRKGKVPMNIVAQRYGASVRQDVLGDLMSRNFIDAIIKEKINPAGAPTYVPGEYKLGEDFTYSVEFEVYPEVELQGLEAIEVEKPIVEVTDADVDGMLDTLRKQQATWKEKDGAVEAEDRVTIDFTGSVDGEEFEGGKASDFVLAMGQGRMIPGFEDGIKGHKAGEEFTIDVTFPEEYHAENLKGKAAKFAINLKKVEERELPELTAEFIKRFGVEDGSVEGLRAEVRKNMERELKSAIRNRVKSQAIEGLVKANDIDVPAALIDSEIDVLRRQAAQRFGGNEKQALELPRELFEEQAKRRVVVGLLLGEVIRTNELKADEERVKGLIEEMASAYEDPKEVIEFYSKNKELMDNMRNVALEEQAVEAVLAKAKVTEKETTFNELMNQQA
notes: trigger factor, a bacterial ATP-independent chaperone; results are mapped onto the crystal structure pdb 1w26; Monomer-dimer equilibrium; predominantly monomeric under the conditions used (low uM, 0.26 M GdnHCl); also called TF; source: E. coli BL21 (DE3), purified (Ni-His Trap, ULP1 cleavage, HiTrap Q, Superdex 75); not shown: His-Sumo, N-terminal, cleaved
B2: Fluorescein-5-maleimide-labelled trigger factor E326C (natural protein)
chain: B1 chain with E326C
modifications: fluorescein-5-maleimide on the cysteine of E326C
notes: Labelling efficiency typically above 92%; also called fluorescently labelling trigger factor; source: E. coli BL21 (DE3), purified (Ni-His Trap, ULP1 cleavage, HiTrap Q, Superdex 75), labelled with fluorescein-5-maleimide; not shown: His-Sumo, N-terminal, cleaved
B3: Alexa Fluor 488-labelled GAPDH (enzyme)
chain: not shown
modifications: CF Fluor 488 A maleimide (called Alexa Fluor 488) on cysteine; the paper says only Cys 149 is solvent-exposed in the native tetramer
notes: glyceraldehyde 3-phosphate dehydrogenase, rabbit; Labelling efficiency typically above 98%; also called fluorophore labelled GAPDH; source: bought: Sigma-Aldrich (G2267), labelled with CF Fluor 488A maleimide, denatured in GdnHCl
B4: refolding glyceraldehyde 3-phosphate dehydrogenase (rabbit GAPDH, GdnHCl-denatured and diluted into refolding buffer) (enzyme)
chain: not shown
notes: glyceraldehyde 3-phosphate dehydrogenase, rabbit (rabbit-muscle GAPDH, pdb 1J0X); Native GAPDH is a tetramer; The protein from tissue likely lacks the initiator methionine (surmise); also called rGAPDH; source: bought: Sigma-Aldrich (G2267), purified rabbit GAPDH; denatured in 3 M GdnHCl and diluted into buffer A

Key:
[1] = target: T1, refolding Vibrio harveyi luciferase …; test: AUC; sedimentation velocity; 2 μM refolding luciferase alone or with 16 μM trigger factor; buffer A with 0.1 M urea, 4 °C, 35,000 r.p.m.; conditions: both partners purified
[2] = target: B4; test: AUC; sedimentation velocity; 5 μM refolding GAPDH alone or with 15 μM trigger factor; buffer A (0.1 M potassium phosphate pH 7.5, 0.1 M KCl, 1 mM TCEP) with 0.26 M GdnHCl, 4 °C, 40,000 r.p.m.; conditions: both partners purified
[3] = target: T1, refolding Vibrio harveyi luciferase …; test: fluorescence polarisation; anisotropy titration; 0.5 μM fluorescein-labelled trigger factor E326C titrated with urea-denatured luciferase; buffer A, 25 °C; hyperbola fit; apparent; conditions: both partners purified
[4] = target: B1; test: fluorescence polarisation; stopped-flow anisotropy; 0.13 μM labelled denatured GAPDH mixed with 0.13–3.24 μM trigger factor; 0.1 M potassium phosphate pH 7.6, 0.1 M KCl, 1 mM TCEP, 0.26 M GdnHCl, 4 °C; linear fit of kobs against trigger factor concentration; conditions: both partners purified
[5] = target: B2; test: fluorescence polarisation; anisotropy titration; 0.5 μM fluorescein-labelled trigger factor E326C titrated with GdnHCl-denatured GAPDH; buffer A, 4 °C; quadratic fit; apparent; conditions: both partners purified
[6] = target: the molecule itself; test: AUC; sedimentation velocity; 5 μM refolding GAPDH alone or with 15 μM trigger factor; buffer A (0.1 M potassium phosphate pH 7.5, 0.1 M KCl, 1 mM TCEP) with 0.26 M GdnHCl, 4 °C, 40,000 r.p.m.
[7] = target: B1; test: cross-linking; XL-MS; 6 μM denatured GAPDH diluted into buffer A with equimolar trigger factor (0.26 M GdnHCl), 2 h on ice, then 2 mM disuccinimidyl dibutyric urea 2 h on ice; SDS–PAGE and LC–MS; conditions: both partners purified

With B1 the “stoichiometry N” value [1] was 1 and the “stoichiometry N” value [2] was 1.

Work on B2 yielded a Kd [3] of 4500 nM.

B3 showed a koff [4] of 8.7 s⁻¹ and a kon [4] of 6.6e+06 M⁻¹ s⁻¹.

With B4 the Kd [5] was 320 nM, the binding result [6] was “binds” and the binding result [7] was “binds”.
